Reference: patent publication US20220135687A1 (NANJING LEGEND BIOTECH, published 2022)
Read-outs that look alike come from different tables or passages of the source.

Legend:
[1] = target: T1, human PD-L1 expressed on CHO-K1 cells (Genscript, Cat #M00543) (human, UniProt Q9NZQ7 19-290); assay: FACS competition vs biotin-PD-1-Fc on CHO-K1/human PD-L1 cells
T1 construct: also called PD-L1 cell line
Protocol: A series of diluted mouse mAbs (concentration starting from 900 nM, 3 fold dilution, 50 μl per well) were added afterwards. The mixture was incubated at 4° C. for 30 minutes, washed twice with wash buffer, followed by the addition of PEcy5/streptavidin (1 μg/ml, 150 μl/well). The plates were again incubated at 4° C. for 30 minutes before the cells in each well were analyzed by FACSCalibur (BD Bioscience, San Jose, Calif.) and Flowjo software.

[2] = target: T1, human PD-L1 expressed on CHO-K1 cells …; assay: FACS, CHO-K1/human PD-L1 cells
Protocol: PD-L1 stable cell line binding activity assessment of 12 mouse mAbs was carried out using FACS. CHO-K1 cells expressing human PD-L1 (Genscript, Cat #M00543) were dissociated from adherent culture flasks and mixed with varying concentrations of antibodies. The antibody and cells were incubated for 30 minutes at room temperature, washed three times with FACS buffer (PBS containing 1% BSA). PE-labeled goat anti-mouse IgG (minimal x-reactivity) secondary antibody (BioLegend, Cat #405307) was added and incubated at room temperature for 15 minutes. Cells were washed again with FACS buffer and analyzed by FACSCalibur (BD Bioscience, San Jose, Calif.) and Flowjo software. Data were analyzed with Prism 6 (GraphPad Software, San Diego, Calif.) using non-linear regression, and EC₅₀ values were calculated (FIGS. 2A-2L and Table 3).

[3] = target: T2, His-tagged PD-L1 ECD protein (ACROBiosystems) (human, UniProt Q9NZQ7 19-238); assay: SPR, supernatant IgG captured, PD-L1-His analyte
T2 construct: Bought protein; also called PD-L1-His; PD-L1/His; not shown: His tag

[4] = target: T2, His-tagged PD-L1 ECD protein …; assay: SPR, supernatant IgG captured, PD-L1-His analyte; remark: listed apart in the source

T2 sequence (Q9NZQ7 19-238): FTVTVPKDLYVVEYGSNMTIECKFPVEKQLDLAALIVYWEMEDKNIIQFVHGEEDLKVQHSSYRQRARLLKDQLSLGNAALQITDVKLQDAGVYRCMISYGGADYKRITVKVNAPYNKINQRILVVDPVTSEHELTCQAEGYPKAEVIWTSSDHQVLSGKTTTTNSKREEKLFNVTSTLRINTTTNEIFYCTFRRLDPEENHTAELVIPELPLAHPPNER
T1 sequence (Q9NZQ7 19-290, one chain of several): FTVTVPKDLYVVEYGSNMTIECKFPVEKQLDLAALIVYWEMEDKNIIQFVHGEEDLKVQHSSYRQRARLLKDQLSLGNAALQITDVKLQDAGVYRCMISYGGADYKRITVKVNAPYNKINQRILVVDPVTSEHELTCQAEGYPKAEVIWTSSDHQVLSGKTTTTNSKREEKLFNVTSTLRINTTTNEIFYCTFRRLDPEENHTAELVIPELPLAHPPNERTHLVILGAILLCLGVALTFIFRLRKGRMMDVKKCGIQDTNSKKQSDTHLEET

| Binder | IC50 [1] | EC50 [2] | Top (best-fit value) [2] | Kd [4] | koff [4] | kon [4] | also measured |
| --- | --- | --- | --- | --- | --- | --- | --- |
| 21D1F4D4 (antibody, V domains shown, Mouse mAb from hybridoma culture) VH: QVQLQQPGAEVVRPGASVKLSCKASGYTFTNYWISWVKQRPGQGLEWIGNIYPSDSYTNYNQNFKDKATLTVDKSSSTAYMQLSSPTSEDSAVYYCTTGIITVIATRDDYWGQGTTLTVSS VL: QIVLTQSPAIMSASPGEKVTLTCSASSSVSSSYLYWYQQKPGSSPKLWIYSTSNLASGVPARFSGSGSGTSYSLTVSSMEAEDAASYFCHQWSSYPFTFGSGTKLEIK | 3.79 nM | 9.37 nM | 1960 |  |  |  |  |
| 29A8_VH2-VL1.M1 (antibody, human IgG1, kappa, N297A, V domains shown, Humanized, hIgG1 effector-less Fc, kappa; see recheck on K24R in the .M1 light chain) VH: EVQLQESGPGLVKPSETLSLTCTVSGYSITSDFAWDWIRQFPGKGLEWMGHIRFSGTTSYNPSLKSRITISVDTSKNQFSLKLSSVTAADTAVYYCARSTLITKGFFDYWGQGTLVTVSS VL: DIQMTQSPSSLSASVGDRVTITCRASQDVSPAVAWYQQKPGKAPKLLIYWASTRHTGVPSRFSGSGSGTDFTLTISSLQPEDFATYYCQQHYSTPWTFGQGTKVEIKR |  |  |  |  |  |  | Kd [3]: 1.3 nM; koff [3]: 0.00061 s⁻¹; kon [3]: 470000 M⁻¹ s⁻¹ |
| 29A8_VH3-VL1.M1 (antibody, human IgG1, kappa, N297A, V domains shown, Humanized, hIgG1 effector-less Fc, kappa; see recheck on K24R in the .M1 light chain) VH: EVQLQESGPGLVKPSETLSLTCTVSGYSITSDFAWDWIRQFPGKGLEWMGHIRFSGTTSYNPSLKSRITISVDTSKNQFFLKLSSVTAADTATYYCARSTLITKGFFDYWGQGTLLTVSS VL: DIQMTQSPSSLSASVGDRVTITCRASQDVSPAVAWYQQKPGKAPKLLIYWASTRHTGVPSRFSGSGSGTDFTLTISSLQPEDFATYYCQQHYSTPWTFGQGTKVEIKR |  |  |  |  |  |  | Kd [3]: 1.1 nM; koff [3]: 0.00051 s⁻¹; kon [3]: 480000 M⁻¹ s⁻¹ |
| 42G2D7C3 (antibody, V domains shown, Mouse mAb from hybridoma culture) VH: DVQLLESGPGLVKPSQSLSLTCSVTGYSITSGYYWNWIRQFPGNNLEWMGSINYDGSNDYNPSLQDRISITRDTSKNQFFLKLNSVTTEDTATYYCARRLDYWGQGTTLIVSS VL: QIVLTQSPAIMSASPGEKVTISCSASSFINYMYWYQQKPGSSPKPWILRTSTLASGVPARFSGSGSGTSYSLTISSMEAEDAATYYCQQYHSYPLTFGAGTKLELK | 2.89 nM | 3.29 nM | 1780 |  |  |  |  |
| 1H1G4D9 (antibody, V domains shown, Mouse mAb from hybridoma culture) VH: EGQLQQSGAELVKPGASVILSCTASGFNIKDTYIHWLNQRPEQGLEWIGRIEPANGNTKYDPTFQGKATITADTSSNTAYLQLTSLTSEDTAVYYCSRGGIYYYGSHWYFDVWGAGTLVTVSS VL: DVLMTQTPLSLPVSLGDQASISCRSSQNIVYSDGDTYLEWYLQKPGQSPKLLIFKVSNRFSGVPDRFSGSGSGTDFTLKISRVEAEDLGVYYCFQGSHVPFTFGSGTKLEIK | 11.8 nM | 12.3 nM | 1760 |  |  |  |  |
| 25G1F9F8 (antibody, V domains shown, Mouse mAb from hybridoma culture) VH: EGQLQQSGAELVKPGASVNLSCTASGFNIKDTYIHWVKQRPDQGLEWIGRIAPTNGNAKFHPTFQGKATITADTSSNTAYLQLSSLTSEDTAVYYCTRGGIYYYGTHWYFDVWGAGTTVTVSS VL: DVLMNQTPLSLPVSLGDQASISCRSSQNIVYSDGNTYLEWYLQKPGQSPKLLIFQVSNRFSGVPDRFSGSGSGTDFTLKISRVEAEDLGFYYCFQGSHVPFTFGSGTKLEIK | 13.8 nM | 18.1 nM | 1750 |  |  |  |  |
| 53C1_VH-VL.M1 (antibody, human IgG1, kappa, N297A, V domains shown, Chimeric mutant, VL K24R in the entry; human IgG1 effector-less Fc, kappa) VH: QVQLQQSGNELARPGASVRLSCKASGYIFTGYGITWVRQRPGQGLEWIGEIFPRRVNTYYSEKFKGRATLTADISSSTAYMELRSLTSEDSAVYFCARDYDPYFALDYWGQGTSVTVSS VL: DIVMTQSHKFMSTSVGDRVSITCRASQDVSTAVDWYQQKPGQSPKLLIYSASYRYTGVPDRFTGSGSGTAFTFTISGEQAEDLAVYYCQQHYSIPFTFGGGTKLEIKR |  |  |  | 0.76 nM | 0.0002 s⁻¹ | 260000 M⁻¹ s⁻¹ |  |
| 53C1_VH.M1-VL.M1 (antibody, human IgG1, kappa, N297A, V domains shown, Chimeric mutant (VH N57S, VL K24R in the entries); human IgG1 effector-less Fc, kappa) VH: QVQLQQSGNELARPGASVRLSCKASGYIFTGYGITWVRQRPGQGLEWIGEIFPRRVSTYYSEKFKGRATLTADISSSTAYMELRSLTSEDSAVYFCARDYDPYFALDYWGQGTSVTVSS VL: DIVMTQSHKFMSTSVGDRVSITCRASQDVSTAVDWYQQKPGQSPKLLIYSASYRYTGVPDRFTGSGSGTAFTFTISGEQAEDLAVYYCQQHYSIPFTFGGGTKLEIKR |  |  |  | 0.86 nM | 0.0002 s⁻¹ | 240000 M⁻¹ s⁻¹ |  |

The next lines start with results.

| IC50 [1] | EC50 [2] | Top (best-fit value) [2] | Kd [4] | koff [4] | kon [4] | Binder | also measured |
| --- | --- | --- | --- | --- | --- | --- | --- |
|  |  |  | 0.29 nM | 0.00015 s⁻¹ | 530000 M⁻¹ s⁻¹ | 29A8_VH-VL.M1 (antibody, human IgG1, kappa, N297A, V domains shown, human IgG1 effector-less Fc, kappa) VH: DVQLQGSGPGLVKPSQSLSLTCTVTGYSITSDFAWDWIRQFPGNKLEWMGHIRFSGTTSYNPSLKSRISITRDTSKNQFFLQLNSVTSEDTATYYCARSTLITKGFFDYWGQGTTLTVSS VL: DIVMTQSHKFMSTSVGGRVSITCRASQDVSPAVAWYQQKPGQSPKLLIYWASTRHTGVPDRFTGSGSGTDFTLTISSVQTEDLALYYCQQHYSTPWTFGGGTKLEIKR |  |
|  | 4.5 nM | 1410 |  |  |  | 25B6E5D8 (antibody, V domains shown, Mouse mAb from hybridoma culture) VH: QFQLQQSGAELVRPGSSVKISCKASGYEFSSNWMNWVKQRPGQSLEWIGQIWPGDGDTNYNGKFRGKATLTSDKSSSTAYMQLNSLTSEDSAVYFCARGRASFYFDYWGQGTALTVSS VL: DIVLTQSPASLAVSLGQRATISCRASESVDDYGNSFMHWYQQKPGQPPKLLIYRASNLESGIPVRFSGSGSRTDFTLTINPVEADDVATYYCQQSNEDPHTFGGGTKLEIK |  |
| 8.35 nM | 11.1 nM | 1640 |  |  |  | 30A6B2D9 (antibody, V domains shown, Mouse mAb from hybridoma culture) VH: EGQLQQSGAGLVKPGASVNLSCTASGFNIKDTYIHWMKQRPEQGLEWIGRIAPTNGNTKYDPTFQGKATITADSSSNTAYLQVSSLTSEDTAVYYCSRGGIYYYGSHWYFDVWGAGTTVTVSS VL: SVLMTQTPLSLPVSLGDQASISCRSSQNIVYSDGDTYLEWYLQKPGQSPKLLIFKVSNRFFGVPDRFSGSGSGTDFTLKINRVEAEDLGVYYCFQGSHVPFTFGSGTKLEIK |  |
|  |  |  | 0.56 nM | 0.00014 s⁻¹ | 260000 M⁻¹ s⁻¹ | 53C1_VH.M3-VL.M1 (antibody, human IgG1, kappa, N297A, V domains shown, Chimeric mutant (VH N57Q, VL K24R in the entries); human IgG1 effector-less Fc, kappa) VH: QVQLQQSGNELARPGASVRLSCKASGYIFTGYGITWVRQRPGQGLEWIGEIFPRRVQTYYSEKFKGRATLTADISSSTAYMELRSLTSEDSAVYFCARDYDPYFALDYWGQGTSVTVSS VL: DIVMTQSHKFMSTSVGDRVSITCRASQDVSTAVDWYQQKPGQSPKLLIYSASYRYTGVPDRFTGSGSGTAFTFTISGEQAEDLAVYYCQQHYSIPFTFGGGTKLEIKR |  |
|  |  |  | 0.87 nM | 0.00021 s⁻¹ | 240000 M⁻¹ s⁻¹ | 53C1_VH.M1-VL (antibody, human IgG1, kappa, N297A, V domains shown, Chimeric mutant, VH N57S in the entry; human IgG1 effector-less Fc, kappa) VH: QVQLQQSGNELARPGASVRLSCKASGYIFTGYGITWVRQRPGQGLEWIGEIFPRRVSTYYSEKFKGRATLTADISSSTAYMELRSLTSEDSAVYFCARDYDPYFALDYWGQGTSVTVSS VL: DIVMTQSHKFMSTSVGDRVSITCKASQDVSTAVDWYQQKPGQSPKLLIYSASYRYTGVPDRFTGSGSGTAFTFTISGEQAEDLAVYYCQQHYSIPFTFGGGTKLEIKR |  |
|  |  |  | 0.53 nM | 0.00014 s⁻¹ | 260000 M⁻¹ s⁻¹ | 53C1_VH.M3-VL (antibody, human IgG1, kappa, N297A, V domains shown, Chimeric mutant, VH N57Q in the entry; human IgG1 effector-less Fc, kappa) VH: QVQLQQSGNELARPGASVRLSCKASGYIFTGYGITWVRQRPGQGLEWIGEIFPRRVQTYYSEKFKGRATLTADISSSTAYMELRSLTSEDSAVYFCARDYDPYFALDYWGQGTSVTVSS VL: DIVMTQSHKFMSTSVGDRVSITCKASQDVSTAVDWYQQKPGQSPKLLIYSASYRYTGVPDRFTGSGSGTAFTFTISGEQAEDLAVYYCQQHYSIPFTFGGGTKLEIKR |  |
|  |  |  | 0.81 nM | 0.00016 s⁻¹ | 200000 M⁻¹ s⁻¹ | 53C1_VH.M2-VL (antibody, human IgG1, kappa, N297A, V domains shown, Chimeric mutant, VH N57A in the entry; human IgG1 effector-less Fc, kappa) VH: QVQLQQSGNELARPGASVRLSCKASGYIFTGYGITWVRQRPGQGLEWIGEIFPRRVATYYSEKFKGRATLTADISSSTAYMELRSLTSEDSAVYFCARDYDPYFALDYWGQGTSVTVSS VL: DIVMTQSHKFMSTSVGDRVSITCKASQDVSTAVDWYQQKPGQSPKLLIYSASYRYTGVPDRFTGSGSGTAFTFTISGEQAEDLAVYYCQQHYSIPFTFGGGTKLEIKR |  |
|  |  |  | 0.94 nM | 0.00018 s⁻¹ | 200000 M⁻¹ s⁻¹ | 53C1_VH.M2-VL.M1 (antibody, human IgG1, kappa, N297A, V domains shown, Chimeric mutant (VH N57A, VL K24R in the entries); human IgG1 effector-less Fc, kappa) VH: QVQLQQSGNELARPGASVRLSCKASGYIFTGYGITWVRQRPGQGLEWIGEIFPRRVATYYSEKFKGRATLTADISSSTAYMELRSLTSEDSAVYFCARDYDPYFALDYWGQGTSVTVSS VL: DIVMTQSHKFMSTSVGDRVSITCRASQDVSTAVDWYQQKPGQSPKLLIYSASYRYTGVPDRFTGSGSGTAFTFTISGEQAEDLAVYYCQQHYSIPFTFGGGTKLEIKR |  |
| 4.43 nM | 6.12 nM | 1720 |  |  |  | 30A7B5D9 (antibody, V domains shown, Mouse mAb from hybridoma culture) VH: KVQLQQSGAELVKPGTSVKLSCKASGYTFTEYIIYWIKQRSGQGLEWIGWFYPGTGSIKYNEKFKDKATLTADKSSSTVFMELSRLTSEDSAVYFCARHEEGNLWFAYWGQGTLVTVSA VL: QIVLTQSPALMSASPGERVTMTCSASSDVSYMYWYQQKPRSSPKPWIYLTSNLASGVPARFSGSGSGTSYSLTISSMEAEDAATYYCQQWTGNPLTFGAGTKLELK |  |
